B1: Adrenodoxin, mitochondrial, P00257 (parent)
chain: MAARLLRVASAALGDTAGRWRLLARPRAGAGGLRGSRGPGLGGGAVATRTLSVSGRAQSSSEDKITVHFINRDGETLTTKGKIGDSLLDVVVQNNLDIDGFGACEGTLACSTCHLIFEQHIFEKLEAITDEENDMLDLAYGLTDRSRLGCQICLTKAMDNMTVRVPDAVSDARESIDMGMNSSKIE

Variants of: B1
Settings: Bos taurus, reversible: YES, structure 1AYF, whole UniProt chain shown; for denaturant m value / denaturant midpoint (higher = more stable) / unfolding free energy: pH 7.5, 20 °C, GdnHCl, Fluorescence, Tris-HCl 50 mM; for Tm / change of melting temperature, mutant - wild type (higher = more stable): pH 8.5, Thermal, CD, Glycine

Variant	denaturant m value	denaturant midpoint (higher = more stable)	unfolding free energy	Tm	change of melting temperature, mutant - wild type (higher = more stable)
F101W	2.19 kcal/mol/M	1.5 M	3.28 kcal/mol	45.4 °C	-6.5 °C
F117W	2.09 kcal/mol/M	1.01 M	2.12 kcal/mol	37.3 °C	-14.6 °C
Y140W				51.2 °C	-0.7 °C
F69W				46.6 °C	-5.3 °C
F122W	2.28 kcal/mol/M	1.82 M	4.17 kcal/mol	48.7 °C	-3.2 °C
